The target in test [1] is T1, mouse EGFR (cell surface) (mouse, UniProt Q01279 25-1210).
T1 construct: whole, on cells; also called W562-CHO-K1.mProl.F3 cells
Briefly: FACS on cells expressing mouse EGFR. On the procedure:
(§1) The binding of antibodies to cell surface EGFR was assessed by FACS with EGFR transfected cells and A431 cell line, which over expresses human EGFR. 1×10⁵ cells/well were plated in a 96-well plate and centrifuged at 210 g for 5 minutes at 4° C. After removing the supernatant, the cell pellets were re-suspended with serial dilutions of testing purified antibodies in 1% BSA-PBS and incubated for 1 hour at 4° C., followed by incubation with FITC conjugated goat anti-human IgG (Jackson ImmunoResearch) at 4° C. for 1 hour. Two times of washing with 200 μl/well 1% BSA-PBS were applied between each step. Finally, the cells were resuspended in 100 μl 1% BSA-PBS for flow cytometry analysis (Intellicyt).

For test [2], the target named is T2, human EGFR (cell surface) (human, UniProt P00533 25-1210).
T2 construct: whole, on cells; also called W562-CHO-K1.hPro1.E9 cells; A431 cells
The test can be described thus: FACS competition with EGF-biotin (50 ng/ml) on A431 cells. The method, then: EGFR-expressing A431 cells were routinely maintained in DMEM containing 10% FBS, 10 mM HEPES and L-glutamine. 10⁵ cells per well were added to each well of a 96-well plate and centrifuged at 210 g for 5 minutes at 4° C. before the supernatant was removed. Serial dilutions of test antibodies were added to the pelleted cells and incubated for 1 hour at 4° C. […] MFI of the cells was measured by flow cytometry and analyzed by FlowJo.

Test [3] has as its target T3, Macaca fascicularis EGFR (cell surface) (Macaca fascicularis, UniProt A0A2K5WK39 25-1210).
T3 construct: whole, on cells; also called monkey EGFR; cyno EGFR
The test can be described thus: FACS on cells expressing monkey EGFR. On the procedure:
as §1

The target of test [4] is T3, Macaca fascicularis EGFR (cell surface). Briefly: FACS affinity on transfected cells, quantitative beads. On the procedure:
(§2) Human, cyno, mouse EGFR and human EGFRvIII transfected cells were transferred in to 96-well U-bottom plates (BD) at a density of 5×10⁴ cells/well, respectively. Testing antibodies were 1:3.16-fold serially diluted in 1% BSA-PBS and incubated with the cells at 4° C. for 1 hr. The secondary antibody, Alexa647 conjugated goat anti-human IgG Fc (Jackson Immunoresearch Lab), was added to resuspended cells and incubated at 4° C. in the dark for 1 hr. The cells were then washed once and resuspended in PBS with 1% BSA, and analyzed by flow cytometery (BD). Fluorescence intensity was converted to bound molecules/cell based on the quantitative beads (Quantum™ MESF Kits, Bangs Laboratories). KD was calculated using Graphpad Prism5.

Test [5] addresses T2, human EGFR (cell surface). Described as above. On the procedure:
as §2

For test [6], the target named is T1, mouse EGFR (cell surface). The test is described as above. The method, then:
as §2

Test [7] deals with T4, human EGFRvIII (cell surface) (human, UniProt P00533 25-1210).
T4 construct: whole, on cells; also called hEGFRIII; EGFR variant III
Described as above. The method, then: as §2

For test [8], the target named is T2, human EGFR (cell surface). The test can be described thus: FACS on cells carrying human EGFR. The method, then: as §1
For test [9], the target named is T5, human EGFR ECD protein (W562-hPro1.ECD.his) (human, UniProt P00533 25-645).
T5 construct: extracellular domain; Made in HEK293 cells
The test can be described thus: SPR (ProteOn XPR36), antibody captured by anti-human IgG Fc, EGFR ECD.his as analyte. On the procedure:
Each antibody was captured on an anti-human IgG Fc antibody immobilized GLM sensor chip (Bio-Rad). W562-hPro1.ECD.his at different concentrations was injected over the sensor chip at a flow rate of 100 uL/min for an association phase of 240 s, followed by 1800 s dissociation. The chip was regenerated by 10 mM glycine (pH 1.5) after each binding cycle. The sensorgrams of blank surface and buffer channel were subtracted from the test sensorgrams. The experimental data was fitted by 1:1 binding model using Langmiur analysis. Molecular weight of 85 kDa was used to calculate the molar concentration of analyte.

Test [10] has as its target T2, human EGFR (cell surface). The test can be described thus: FACS binding to A431 cells (printed 'A432' in paragraph 253) after 0, 1, 4, 7 and 14 days in human serum at 37 C; upper panel. On the procedure:
(§3) Freshly collected human blood was incubated in polystyrene tubes without anticoagulant for 30 minutes at room temperature. The Serum was collected after centrifugation the blood at 4000 rpm for 10 minutes. Repeat the centrifugation until the serum was clarifying. Gently mix antibodies with serum and ensure the serum content >95%. The mix aliquots were incubated at 37° C. for 0 day, 1 day, 4 days, 7 days and 14 days, respectively. At the indicated time point the samples were quickly-frozen in liquid nitrogen and stored at −80° C. until analysis. The cell bindings of the serial dilutions of the antibody samples to A432 cells were analyzed by FACS. Four-parameter non-linear regression analysis was used to obtain EC₅₀ values for cell binding using GraphPad Prism 5 software (GraphPad Software, La Jolla, Calif.).

In test [11] the target is T2, human EGFR (cell surface). The test can be described thus: cell-based or functional assay.
For test [12], the target named is T2, human EGFR (cell surface). The test can be described thus: FACS binding to A431 cells (printed 'A432' in paragraph 253) after 0, 1, 4, 7 and 14 days in human serum at 37 C; lower panel. On the procedure: as §3
On the technique in general: Flow cytometry measures light scatter and fluorescence of single cells or particles in a stream.

For orientation: EC50 means the concentration giving half of the maximal effect. By IC50 is commonly meant the point on the concentration scale where inhibition reaches its midpoint. As a reminder, the Kd is the equilibrium constant for the complex coming apart. By koff is commonly meant a measure of how fast the partners let go of each other. For orientation: kon means the second-order rate constant of association. A word on the EC50 (read off the curve): it is the concentration at which the effect is half-maximal.

Several values for one entry are separate records, joined by “and”; a condition that tells them apart may be missing. Identical values can stand only once.

B1: W5626-2C2-z22 (humanized VHH of W5626-2C2 further comprising a human Fc of IgG1 isotype) (Fc fusion)
chain: EVQLVESGGGLVQPGGSLRLSCAASGRTHSNYVMGWFRQAPGQEREFVAGISRTYGNTYYRDSVEGRFTISRDNSKNTLYLQMNSLRAEDTAVYYCAADPTRSEVILTTSHRYVYWGQGTLVTVSS
notes: Bivalent humanized VHH linked with human IgG1 Fc region; not shown: human IgG1 Fc region from a modified pcDNA3.3 vector
On to B1, for which the values for the EC50 in test [1], in [3] and in test [8] were 650 pM, 250 pM and 830 pM, respectively. The molecule further had a half-inhibitory concentration (IC50) in test [2] of 1350 pM. Moreover, the Bmax was determined as 230 pM in test [4], 860 pM in test [5], 1000 pM in test [6] and 530 pM in test [7]. Also, the Kd in test [4] is 260 pM; in test [5] it was 1100 pM; in test [6], 510 pM; in [7], 240 pM; in test [9], 3220 pM. For the same molecule, the koff in test [9] came to 0.00209 s⁻¹. The molecule further gave an association rate constant (kon) in test [9] of 649000 M⁻¹ s⁻¹. Moreover, the “EC50 (read off the curve)” value in test [10] was roughly 900 pM. Further, in test [11], the “EC50 of EGFR internalization (Fab-ZAP, viability of A431 cells)” value is 170 pM. For the same molecule, the “IC50 of inhibition of EGFR phosphorylation (pEGFR sandwich ELISA, A431 cells stimulated with EGF)” value in test [11] was 22.6 nM and 10.4 nM.

B2: W5626-2C10-z5 (humanized VHH of W5626-2C10 further comprising a human Fc of IgG1 isotype) (Fc fusion)
chain: AVQLVESGGGLVQPGGSLTLSCAASGRTFSSYAMGWFRQAPGKEREFVAADRWSGGNTRYADSVKGRFTISRDNAKNTLYLQMNSLRAEDTAVYYCAATYLSSDYEWGVPPKAYDYDYWGQGTLVTVSS
notes: as for B1
As for B2, the concentration giving a half-maximal response (EC50) in test [1] was 1060 pM; in test [3], 580 pM; in test [8], 990 pM. This molecule showed a half-inhibitory concentration (IC50) in test [2] of 2580 pM. In addition, the “EC50 (read off the curve)” value in test [12] was roughly 800 pM. Further, the Bmax in test [4] stood at 230 pM; in [5], 920 pM; in test [6], 890 pM; in [7], 590 pM. The equilibrium dissociation constant (Kd) was 230 pM in [4]; 1400 pM in [5]; 540 pM in test [6]; 320 pM in [7]; 162 pM in test [9]. In test [9], this molecule came in with a koff of 0.000105 s⁻¹. The molecule further came in with a kon in [9] of 646000 M⁻¹ s⁻¹. Also, in test [11], the “EC50 of EGFR internalization (Fab-ZAP, viability of A431 cells)” value was determined as 210 pM. Further, the “IC50 of inhibition of EGFR phosphorylation (pEGFR sandwich ELISA, A431 cells stimulated with EGF)” value in [11] is 10.4 nM and 22.6 nM.

(Values after patent US20210115146A1 (WUXI BIOLOGICS IRELAND, published 2021).)
